These results are taken from paper PMC3711433, “Differential roles of human Dicer-binding proteins TRBP and PACT in small RNA processing” (Nucleic Acids Research, 2013).

The target of series [1] is T1, Dicer (human, UniProt Q9UPY3 1-1922).
T1 construct: Dicer, human endoribonuclease; also called endonuclease Dicer
Put plainly: SEC; gel filtration column chromatography of Dicer with the dsRBP or chimeric dsRBP, reconstituted from purified proteins. The settings on record: both partners purified. (In general: SEC sorts molecules by how far they enter the pores of the column.)
T1 sequence (Q9UPY3 whole entry): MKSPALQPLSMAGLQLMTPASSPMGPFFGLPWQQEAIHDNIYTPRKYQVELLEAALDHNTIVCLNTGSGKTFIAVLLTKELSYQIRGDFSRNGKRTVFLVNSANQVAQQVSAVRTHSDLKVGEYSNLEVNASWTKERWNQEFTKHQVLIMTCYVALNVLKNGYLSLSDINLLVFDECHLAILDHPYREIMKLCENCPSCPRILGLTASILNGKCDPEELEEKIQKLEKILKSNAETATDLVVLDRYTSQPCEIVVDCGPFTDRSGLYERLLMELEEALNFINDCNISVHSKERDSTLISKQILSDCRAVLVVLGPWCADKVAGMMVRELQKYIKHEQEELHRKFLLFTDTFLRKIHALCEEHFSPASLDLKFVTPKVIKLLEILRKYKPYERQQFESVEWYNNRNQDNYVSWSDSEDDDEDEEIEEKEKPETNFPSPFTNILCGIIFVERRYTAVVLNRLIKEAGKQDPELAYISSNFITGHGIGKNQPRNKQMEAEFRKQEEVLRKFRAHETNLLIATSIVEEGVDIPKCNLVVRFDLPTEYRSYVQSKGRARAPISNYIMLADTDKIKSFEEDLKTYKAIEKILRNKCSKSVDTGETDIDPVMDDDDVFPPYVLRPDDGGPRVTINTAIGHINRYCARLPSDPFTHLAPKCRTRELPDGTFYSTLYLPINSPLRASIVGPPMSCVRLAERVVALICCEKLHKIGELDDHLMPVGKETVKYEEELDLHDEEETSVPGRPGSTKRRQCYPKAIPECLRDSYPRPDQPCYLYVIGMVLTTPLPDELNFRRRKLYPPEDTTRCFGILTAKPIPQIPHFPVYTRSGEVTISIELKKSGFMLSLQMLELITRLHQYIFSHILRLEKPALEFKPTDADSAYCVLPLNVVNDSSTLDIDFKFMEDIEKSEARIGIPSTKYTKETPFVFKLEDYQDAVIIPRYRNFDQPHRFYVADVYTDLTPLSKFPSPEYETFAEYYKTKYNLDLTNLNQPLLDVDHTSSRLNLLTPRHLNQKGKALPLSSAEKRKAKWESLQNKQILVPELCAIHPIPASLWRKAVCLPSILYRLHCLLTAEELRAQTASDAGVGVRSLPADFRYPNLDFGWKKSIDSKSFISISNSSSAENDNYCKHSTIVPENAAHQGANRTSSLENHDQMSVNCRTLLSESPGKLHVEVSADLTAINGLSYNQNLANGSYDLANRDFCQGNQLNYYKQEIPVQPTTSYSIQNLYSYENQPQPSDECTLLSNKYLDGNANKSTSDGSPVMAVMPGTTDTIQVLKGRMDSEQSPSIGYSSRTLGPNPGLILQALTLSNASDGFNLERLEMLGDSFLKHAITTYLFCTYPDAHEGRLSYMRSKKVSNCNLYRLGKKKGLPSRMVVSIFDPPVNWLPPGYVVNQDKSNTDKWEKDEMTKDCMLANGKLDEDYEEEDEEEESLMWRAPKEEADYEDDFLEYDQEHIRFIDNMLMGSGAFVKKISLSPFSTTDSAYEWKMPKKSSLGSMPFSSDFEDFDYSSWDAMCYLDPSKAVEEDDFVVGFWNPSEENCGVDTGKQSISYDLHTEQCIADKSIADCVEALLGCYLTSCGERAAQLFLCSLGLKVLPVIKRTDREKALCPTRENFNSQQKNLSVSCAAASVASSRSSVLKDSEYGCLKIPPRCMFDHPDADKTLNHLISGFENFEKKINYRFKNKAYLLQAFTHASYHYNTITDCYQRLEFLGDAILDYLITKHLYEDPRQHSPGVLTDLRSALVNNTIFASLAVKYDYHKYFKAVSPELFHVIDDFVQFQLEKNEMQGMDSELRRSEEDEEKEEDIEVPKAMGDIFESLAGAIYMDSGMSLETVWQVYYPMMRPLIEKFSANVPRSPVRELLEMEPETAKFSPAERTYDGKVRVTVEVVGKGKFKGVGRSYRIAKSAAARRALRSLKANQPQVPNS

In series [2] the target is T1, Dicer. Nature of the series: native gel or EMSA; dsRNA A (0.5 uM) with 0, 0.5 or 1 uM protein or complex in 20 mM HEPES (pH 7.5), 300 mM KCl, 5% glycerol, 1 mM TCEP, on ice 45 min, 6% native PAGE, SYBR-Gold; the shift by the Dicer-dsRBP complex is compared with that by the dsRBP alone. The settings on record: both partners purified. (In EMSA bound probe runs differently from free probe, usually more slowly.)

Series [3] has as its target Dicer;TRBP (human;human, UniProt Q9UPY3;Q15633 1-1922;1-366, |). Nature of the series: EMSA; 0.5 uM dsRNA, up to 1 uM complex; Fig 1B: 20 mM HEPES pH 7.5, 300 mM KCl, 5% glycerol, 1 mM TCEP, on ice 45 min, 6% native PAGE; Fig S5: 20 mM Tris-HCl pH 6.5, 1.5 mM MgCl2, 25 mM NaCl, 1 mM DTT, 1% glycerol, on ice 60 min. The settings on record: protein: recombinant;recombinant; copies: 1;1.

In series [4] the target is Dicer;PACT (human;human, UniProt Q9UPY3;O75569 1-1922;1-313, |). Nature of the series: EMSA; 0.5 uM dsRNA, up to 1 uM complex; shift distinct from PACT alone; Fig 1B: 20 mM HEPES pH 7.5, 300 mM KCl, 5% glycerol, 1 mM TCEP, on ice 45 min, 6% native PAGE; Fig S5: 20 mM Tris-HCl pH 6.5, 1.5 mM MgCl2, 25 mM NaCl, 1 mM DTT, 1% glycerol, on ice 60 min. The settings on record: protein: recombinant;recombinant; tags: ;His6-MBP removed by TEV; copies: 1;1.
Sequence of Dicer;PACT (Q9UPY3 whole entry, one chain of several): as the sequence (Q9UPY3 whole entry) above

Series [5] has as its target T2, TRBP (human, UniProt Q15633 1-366).
T2 sequence: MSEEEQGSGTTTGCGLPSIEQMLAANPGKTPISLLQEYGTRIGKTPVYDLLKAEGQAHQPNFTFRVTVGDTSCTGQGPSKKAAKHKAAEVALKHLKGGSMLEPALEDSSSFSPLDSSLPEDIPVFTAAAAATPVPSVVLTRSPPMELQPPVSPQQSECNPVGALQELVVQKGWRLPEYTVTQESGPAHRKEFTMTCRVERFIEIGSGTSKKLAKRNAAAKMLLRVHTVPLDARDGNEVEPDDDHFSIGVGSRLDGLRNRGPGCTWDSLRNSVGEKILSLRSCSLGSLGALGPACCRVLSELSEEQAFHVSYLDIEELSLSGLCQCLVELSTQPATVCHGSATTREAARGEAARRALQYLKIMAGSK
Nature of the series: EMSA; 0.5 uM dsRNA, up to 1 uM protein; Fig 1B: 20 mM HEPES pH 7.5, 300 mM KCl, 5% glycerol, 1 mM TCEP, on ice 45 min, 6% native PAGE; Fig S5: 20 mM Tris-HCl pH 6.5, 1.5 mM MgCl2, 25 mM NaCl, 1 mM DTT, 1% glycerol, on ice 60 min. The settings on record: protein: recombinant.

The target of series [6] is Dicer (human, UniProt Q9UPY3 1-1922). The description is as above. The settings on record: protein: recombinant.
Target sequence in this assay (Q9UPY3 whole entry): as the sequence (Q9UPY3 whole entry) above

Sequence of Dicer;TRBP (Q9UPY3 whole entry, one chain of several): as the sequence (Q9UPY3 whole entry) above

B1: T12P3 (other, human, UniProt Q15633 1-232, looked up)
chain: MSEEEQGSGTTTGCGLPSIEQMLAANPGKTPISLLQEYGTRIGKTPVYDLLKAEGQAHQPNFTFRVTVGDTSCTGQGPSKKAAKHKAAEVALKHLKGGSMLEPALEDSSSFSPLDSSLPEDIPVFTAAAAATPVPSVVLTRSPPMELQPPVSPQQSECNPVGALQELVVQKGWRLPEYTVTQESGPAHRKEFTMTCRVERFIEIGSGTSKKLAKRNAAAKMLLRVHTVPLDAPENHISLTNVVGHSLGCTWHSLRNSPGEKINLLKRSLLSIPNTDYIQLLSEIAKEQGFNITYLDIDELSANGQYQCLAELSTSPITVCHGSGISCGNAQSDAAHNALQYLKIIAERK
notes: TRBP, human, residues 1-232 (dsRBD1, linker, dsRBD2); PACT, human, residues 197-313 (with dsRBD3); purified by the PACT method, which removes His6-MBP by TEV cleavage; also called chimeric protein T12P3; source: purified (HiTrap-Q flow-through, HiTrap-SP, then as PACT)
As for B1, in series [1], the binding result is on record as “binds”.

B2: protein activator of PKR (PACT) (natural protein, human, UniProt O75569 1-313, looked up)
chain: MSQSRHRAEAPPLEREDSGTFSLGKMITAKPGKTPIQVLHEYGMKTKNIPVYECERSDVQIHVPTFTFRVTVGDITCTGEGTSKKLAKHRAAEAAINILKANASICFAVPDPLMPDPSKQPKNQLNPIGSLQELAIHHGWRLPEYTLSQEGGPAHKREYTTICRLESFMETGKGASKKQAKRNAAEKFLAKFSNISPENHISLTNVVGHSLGCTWHSLRNSPGEKINLLKRSLLSIPNTDYIQLLSEIAKEQGFNITYLDIDELSANGQYQCLAELSTSPITVCHGSGISCGNAQSDAAHNALQYLKIIAERK
notes: called full-length; the chimeras' limits run to residue 313; source: purified (TEV cleavage, HiTrap-SP, Superdex-200)
B2: in series [1], the binding result is given as “binds”.

B3: trans-activation response RNA-binding protein (TRBP) (natural protein, human, UniProt Q15633 1-366, looked up)
chain: T2 sequence
notes: called full-length; the chimeras' limits run to residue 366; removal of His6-MBP after TEV cleavage on a Ni-NTA column is told by comparison with the PACT purification
Take B3: the binding result in series [2] is reported as “binds”.

B4: dsRNA A (dsRNA)
RNA 1: UGGCCUUGGGCAACGGUAAUU
RNA 2: UUACCGUUGCCCAAGGCCAUU
Take B4: the binding result in series [3] is on record as “binds”; in series [4], “binds”; in series [5] it was “binds”; in series [6] it was “no binding”.
